In patent US10800813 (Bicycle, dated 2020):
Where two headings read alike, the source gives them in different places. Numbered stars: 1 amine (or outer) side, 2 acyl side, 3 side chain; on linkers, the order of the positions; unused ones are H or OH. Bridge positions count the residues as written; N and C are the ends. Square brackets hold non-standard residues; d marks the D form. Ends that are not written are not given here. Phe(4-guanidino) = N=C(N)Nc1ccc(C[C@H](N)C(=O)O)cc1; TBMB = c1c(C[*:1])cc(C[*:3])cc1C[*:2]; NMeR = CN[C@@H](CCCNC(=N)N)C(=O)O; hArg = N=C(N)NCCCC[C@H](N)C(=O)O; Pen = CC(C)(S)[C@H](N)C(=O)O; NMeS = CN[C@@H](CO)C(=O)O; Aze = O=C(O)[C@@H]1CCN1; Sar = CNCC(=O)O

Experiments:
[1] = biological target: T1, human plasma Kallikrein (human, UniProt P03952 20-638, limits assumed); assay: enzyme inhibition assay
T1 construct: also called hPK; human PK
T1 sequence (P03952 20-638 limits assumed): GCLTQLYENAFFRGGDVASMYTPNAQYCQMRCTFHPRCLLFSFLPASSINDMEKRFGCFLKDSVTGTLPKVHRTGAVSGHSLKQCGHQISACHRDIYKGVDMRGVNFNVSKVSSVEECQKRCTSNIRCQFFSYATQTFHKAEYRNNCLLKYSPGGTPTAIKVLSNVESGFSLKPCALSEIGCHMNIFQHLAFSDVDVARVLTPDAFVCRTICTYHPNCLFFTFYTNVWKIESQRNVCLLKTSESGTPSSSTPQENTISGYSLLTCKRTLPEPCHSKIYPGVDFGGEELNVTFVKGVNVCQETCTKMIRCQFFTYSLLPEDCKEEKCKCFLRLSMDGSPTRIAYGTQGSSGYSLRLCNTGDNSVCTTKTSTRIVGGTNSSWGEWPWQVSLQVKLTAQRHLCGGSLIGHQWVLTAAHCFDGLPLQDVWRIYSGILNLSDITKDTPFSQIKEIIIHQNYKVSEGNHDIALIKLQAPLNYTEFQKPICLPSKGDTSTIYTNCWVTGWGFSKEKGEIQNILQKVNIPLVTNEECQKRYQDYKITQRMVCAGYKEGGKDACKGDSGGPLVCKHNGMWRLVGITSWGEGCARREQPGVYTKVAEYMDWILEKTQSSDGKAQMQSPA

[2] = biological target: T1, human plasma Kallikrein; assay: enzyme inhibition assay; remark: listed apart in the source
[3] = biological target: T2, Rat plasma Kallikrein (rat, UniProt P14272 391-638, limits assumed); assay: enzyme inhibition assay; values relative, not absolute
T2 construct: domain: catalytic domain; also called rPK; rat PK
T2 sequence (P14272 391-638 limits assumed): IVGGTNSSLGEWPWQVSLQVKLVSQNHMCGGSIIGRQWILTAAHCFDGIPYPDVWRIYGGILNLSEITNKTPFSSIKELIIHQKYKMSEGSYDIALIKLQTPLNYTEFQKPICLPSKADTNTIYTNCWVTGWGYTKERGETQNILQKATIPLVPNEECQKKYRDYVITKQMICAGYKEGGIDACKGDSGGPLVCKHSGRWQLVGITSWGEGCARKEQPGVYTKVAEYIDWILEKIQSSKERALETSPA

[4] = biological target: T1, human plasma Kallikrein; assay: enzyme inhibition assay; remark: listed apart in the source
[5] = biological target: T2, Rat plasma Kallikrein; assay: enzyme inhibition assay
[6] = biological target: T1, human plasma Kallikrein; assay: enzyme inhibition assay; remark: listed apart in the source
[7] = biological target: T1, human plasma Kallikrein; assay: enzyme inhibition assay; remark: listed apart in the source
[8] = biological target: T1, human plasma Kallikrein; assay: enzyme inhibition assay; remark: listed apart in the source
[9] = biological target: T1, human plasma Kallikrein; assay: enzyme inhibition assay; remark: listed apart in the source
[10] = biological target: T2, Rat plasma Kallikrein; assay: enzyme inhibition assay; remark: listed apart in the source
[11] = biological target: T3, Monkey plasma Kallikrein (monkey (Macaca mulatta), UniProt A0A1D5Q7U7 391-638); assay: enzyme inhibition assay
T3 construct: domain: catalytic domain; also called mPK
T3 sequence (A0A1D5Q7U7 entry or part of it): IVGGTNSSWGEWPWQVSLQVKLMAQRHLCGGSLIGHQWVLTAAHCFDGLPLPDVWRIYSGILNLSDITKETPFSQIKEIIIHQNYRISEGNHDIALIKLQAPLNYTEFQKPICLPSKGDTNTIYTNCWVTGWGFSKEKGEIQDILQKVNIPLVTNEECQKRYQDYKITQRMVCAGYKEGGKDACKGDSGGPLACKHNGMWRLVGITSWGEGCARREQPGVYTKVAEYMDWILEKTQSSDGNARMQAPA

[12] = biological target: T1, human plasma Kallikrein; assay: enzyme inhibition assay; remark: listed apart in the source
[13] = biological target: T1, human plasma Kallikrein; assay: enzyme inhibition assay; remark: listed apart in the source
[14] = biological target: T1, human plasma Kallikrein; assay: enzyme inhibition assay; remark: listed apart in the source

Binder: AC[NMeS]WPARCLHQDLCA (linker 2-8-14 via TBMB; not fully specified (N-terminus, C-terminus)) [06-34-18 -N-MeSer1]
- fold loss in potency against the parent [1]: 10 fold
- Ki [2]: 0.56 nM

Binder: Ac-CSWPA[hArg]CLHQDLC-NH2 (linker 1-7-13 via TBMB) [Ac-(06-34-18) HomoArg5]
- IC50 [3]: 64 nM

Binder: ACSWPARCLHQDLCA (linker 2-8-14 via TBMB; not fully specified (N-terminus, C-terminus)) [06-34-18 (01 + 05)]
- IC50 [4]: 0.07 nM
- IC50 [5]: 0.56 nM
- Ki [2]: 0.04 nM

B1: Ac-(06-34-18) NMeArg5 (peptide)
peptide: Ac-CSWPA[NMeR]CLHQDLC-NH2
modifications: linker 1-7-13 via TBMB
SMILES: CC(=O)N[C@H]1CSCc2cc3cc(c2)CSC[C@H](NC(=O)[C@H](CCCNC(=N)N)N(C)C(=O)[C@H](C)NC(=O)[C@@H]2CCCN2C(=O)[C@H](Cc2c[nH]c4ccccc24)NC(=O)[C@H](CO)NC1=O)C(=O)N[C@@H](CC(C)C)C(=O)N[C@@H](Cc1c[nH]cn1)C(=O)N[C@@H](CCC(N)=O)C(=O)N[C@@H](CC(=O)O)C(=O)N[C@@H](CC(C)C)C(=O)N[C@H](C(N)=O)CSC3
- fold reduction in affinity against wildtype peptide [1]: 20 fold
- Ki [6]: 3.5 nM
- IC50 [3]: 98 nM
- Ki [7]: 3.5 nM

B2: Ac-(06-34-18) Aze3 NMeArg5 (peptide)
peptide: Ac-CSW[Aze]A[NMeR]CLHQDLC-NH2
modifications: linker 1-7-13 via TBMB
SMILES: CC(=O)N[C@H]1CSCc2cc3cc(c2)CSC[C@H](NC(=O)[C@H](CCCNC(=N)N)N(C)C(=O)[C@H](C)NC(=O)[C@@H]2CCN2C(=O)[C@H](Cc2c[nH]c4ccccc24)NC(=O)[C@H](CO)NC1=O)C(=O)N[C@@H](CC(C)C)C(=O)N[C@@H](Cc1c[nH]cn1)C(=O)N[C@@H](CCC(N)=O)C(=O)N[C@@H](CC(=O)O)C(=O)N[C@@H](CC(C)C)C(=O)N[C@H](C(N)=O)CSC3
- Ki [7]: 1.3 nM

Binder: ACRWPARCTHQNYCA (linker 2-8-14 via TBMB; not fully specified (N-terminus, C-terminus), also called PK106) [06-54 (2A2)]
- Ki [8]: 0.49 nM
- Ki [9]: 5 nM
- Ki [10]: 7 nM
- Ki [11]: 6 nM

B3: Ac-(06-34-18) FPAR (peptide)
peptide: Ac-CSFPARCLHQDLC-NH2
modifications: linker 1-7-13 via TBMB
SMILES: CC(=O)N[C@H]1CSCc2cc3cc(c2)CSC[C@H](NC(=O)[C@H](CCCNC(=N)N)NC(=O)[C@H](C)NC(=O)[C@@H]2CCCN2C(=O)[C@H](Cc2ccccc2)NC(=O)[C@H](CO)NC1=O)C(=O)N[C@@H](CC(C)C)C(=O)N[C@@H](Cc1c[nH]cn1)C(=O)N[C@@H](CCC(N)=O)C(=O)N[C@@H](CC(=O)O)C(=O)N[C@@H](CC(C)C)C(=O)N[C@H](C(N)=O)CSC3
- fold change in Ki against WPAR parent [1]: 40 fold
- Ki [12]: 6.28 nM

B4: Ac-(06-34-18) WPYR (peptide)
peptide: Ac-CSWPYRCLHQDLC-NH2
modifications: linker 1-7-13 via TBMB
SMILES: CC(=O)N[C@H]1CSCc2cc3cc(c2)CSC[C@H](NC(=O)[C@H](CCCNC(=N)N)NC(=O)[C@H](Cc2ccc(O)cc2)NC(=O)[C@@H]2CCCN2C(=O)[C@H](Cc2c[nH]c4ccccc24)NC(=O)[C@H](CO)NC1=O)C(=O)N[C@@H](CC(C)C)C(=O)N[C@@H](Cc1c[nH]cn1)C(=O)N[C@@H](CCC(N)=O)C(=O)N[C@@H](CC(=O)O)C(=O)N[C@@H](CC(C)C)C(=O)N[C@H](C(N)=O)CSC3
- Ki [12]: 0.41 nM

B5: Ac-(06-34-18) WPSR (peptide)
peptide: Ac-CSWPSRCLHQDLC-NH2
modifications: linker 1-7-13 via TBMB
SMILES: CC(=O)N[C@H]1CSCc2cc3cc(c2)CSC[C@H](NC(=O)[C@H](CCCNC(=N)N)NC(=O)[C@H](CO)NC(=O)[C@@H]2CCCN2C(=O)[C@H](Cc2c[nH]c4ccccc24)NC(=O)[C@H](CO)NC1=O)C(=O)N[C@@H](CC(C)C)C(=O)N[C@@H](Cc1c[nH]cn1)C(=O)N[C@@H](CCC(N)=O)C(=O)N[C@@H](CC(=O)O)C(=O)N[C@@H](CC(C)C)C(=O)N[C@H](C(N)=O)CSC3
- Ki [12]: 0.44 nM

B6: Ac-(06-34-18) Aze3 HomoArg5 (peptide)
peptide: Ac-CSW[Aze]A[hArg]CLHQDLC-NH2
modifications: linker 1-7-13 via TBMB
SMILES: CC(=O)N[C@H]1CSCc2cc3cc(c2)CSC[C@H](NC(=O)[C@H](CCCCNC(=N)N)NC(=O)[C@H](C)NC(=O)[C@@H]2CCN2C(=O)[C@H](Cc2c[nH]c4ccccc24)NC(=O)[C@H](CO)NC1=O)C(=O)N[C@@H](CC(C)C)C(=O)N[C@@H](Cc1c[nH]cn1)C(=O)N[C@@H](CCC(N)=O)C(=O)N[C@@H](CC(=O)O)C(=O)N[C@@H](CC(C)C)C(=O)N[C@H](C(N)=O)CSC3
- Ki [7]: 0.14 nM

B7: Ac-(06-34-18) 4GuanPhe5 (peptide)
peptide: Ac-CSWPA[Phe(4-guanidino)]CLHQDLC-NH2
modifications: linker 1-7-13 via TBMB
SMILES: CC(=O)N[C@H]1CSCc2cc3cc(c2)CSC[C@H](NC(=O)[C@H](Cc2ccc(NC(=N)N)cc2)NC(=O)[C@H](C)NC(=O)[C@@H]2CCCN2C(=O)[C@H](Cc2c[nH]c4ccccc24)NC(=O)[C@H](CO)NC1=O)C(=O)N[C@@H](CC(C)C)C(=O)N[C@@H](Cc1c[nH]cn1)C(=O)N[C@@H](CCC(N)=O)C(=O)N[C@@H](CC(=O)O)C(=O)N[C@@H](CC(C)C)C(=O)N[C@H](C(N)=O)CSC3
- IC50 [3]: 21 nM
- Ki [13]: 0.3 nM
- Ki [7]: 0.34 nM

Binder: AC[Sar]WPARC[Sar]HQDLCA (linker 2-8-14 via TBMB; not fully specified (N-terminus, C-terminus), also called AC N-MeGWPARCN-MeGHQDLCA) [06-34-03 - N-MeGly1,6]
- Ki [2]: 24.8 nM

B8: Ac-(06-34-18) Aze3 4GuanPhe5 (peptide)
peptide: Ac-CSW[Aze]A[Phe(4-guanidino)]CLHQDLC-NH2
modifications: linker 1-7-13 via TBMB
SMILES: CC(=O)N[C@H]1CSCc2cc3cc(c2)CSC[C@H](NC(=O)[C@H](Cc2ccc(NC(=N)N)cc2)NC(=O)[C@H](C)NC(=O)[C@@H]2CCN2C(=O)[C@H](Cc2c[nH]c4ccccc24)NC(=O)[C@H](CO)NC1=O)C(=O)N[C@@H](CC(C)C)C(=O)N[C@@H](Cc1c[nH]cn1)C(=O)N[C@@H](CCC(N)=O)C(=O)N[C@@H](CC(=O)O)C(=O)N[C@@H](CC(C)C)C(=O)N[C@H](C(N)=O)CSC3
- Ki [7]: 0.17 nM

B9: Ac-(06-34-18) Cys2ToPen2 (peptide)
peptide: Ac-CSWPAR[Pen]LHQDLC-NH2
modifications: linker 1-7-13 via TBMB
SMILES: CC(=O)N[C@H]1CSCc2cc3cc(c2)CSC(C)(C)[C@H](NC(=O)[C@H](CCCNC(=N)N)NC(=O)[C@H](C)NC(=O)[C@@H]2CCCN2C(=O)[C@H](Cc2c[nH]c4ccccc24)NC(=O)[C@H](CO)NC1=O)C(=O)N[C@@H](CC(C)C)C(=O)N[C@@H](Cc1c[nH]cn1)C(=O)N[C@@H](CCC(N)=O)C(=O)N[C@@H](CC(=O)O)C(=O)N[C@@H](CC(C)C)C(=O)N[C@H](C(N)=O)CSC3
- Ki [14]: 2160 nM

Binder: ACAWPARCAHQDLCA (linker 2-8-14 via TBMB; not fully specified (N-terminus, C-terminus), also called R1A/V6A) [06-34-03 - Ala1,6]
- Ki [2]: 0.147 nM
